Reference: patent US20130202594A1, “ALK1 Antagonists and Their Uses in Treating Renal Cell Carcinoma” (priority 2012, published 2013)
“Also recorded” adds a separate entry of the source.

Experiments:
BMP2 = molecular target: T1, BMP2 (Homo sapiens, UniProt P12643); test: Biacore binding to hALK1-Fc: BMP2
T1 sequence (P12643 283-396): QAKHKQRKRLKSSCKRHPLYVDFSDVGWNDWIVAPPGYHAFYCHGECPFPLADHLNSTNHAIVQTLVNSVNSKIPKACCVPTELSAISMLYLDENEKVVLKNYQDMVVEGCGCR
Method: ALK1 is a type 1 receptor for ligands of the TGFβ family. Multiple members of the TGFβ family were tested for binding to a human ALK1-Fc fusion protein, using a Biacore™ system.

ocular angiogenesis = test: Mouse corneal micropocket assay; assay type: in vivo; conditions: intraperitoneally; identical weight/weight dosages
Source text: In preferred embodiments, an ALK1 ECD polypeptide binds to one or more of GDF5, GDF6, GDF7, BMP9 and BMP10. […] Binding may be assessed using purified proteins in solution or in a surface plasmon resonance system, such as a Biacore™ system. […] Bioassays for angiogenesis inhibitory activity include the chick chorioallantoic membrane (CAM) assay, the mouse corneal micropocket assay, or an assay known in the art for measuring the effect of administering isolated or synthesized proteins on implanted tumors. The CAM assay is described by O'Reilly, et al., in “Angiogenic Regulation of Metastatic Growth” Cell, 1994; 79 (2):315-328. Briefly, 3 day old chicken embryos with intact yolks are separated from the egg and placed in a petri dish. After 3 days of incubation, a methylcellulose disc containing the protein to be tested is applied to the CAM of individual embryos. After 48 hours of incubation, the embryos and CAMs are observed to determine whether endothelial growth has been inhibited. The mouse corneal micropocket assay involves implanting a growth factor-containing pellet, […] of capillaries that are elaborated in the cornea. Other assays are described in the Examples.
Similar data were obtained when a Matrigel plug impregnated with VEGF was implanted in a non-ocular location.

“hALK1-Fc: extracellular domain of human ALK1 (amino acids 22-120) fused to a human IgG1 Fc with a minimal linker (SEQ ID NO:3/14)” was tested, and the “binding to hALK1-Fc” value (BMP2) was “failed to show substantial binding; also recorded: only limited binding” and the ocular angiogenesis (ocular angiogenesis) was “significantly inhibited ocular angiogenesis; also recorded: to the same degree as anti-VEGF; also recorded: comparable effects”.
